System: MS2 coat protein
Assay: apparent KD of MS2 coat protein; designed switch direction (-1 OFF switch, 1 ON switch): 1; higher = weaker reporter binding
Procedure, shortened: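 Three titration conditions were used: no input, 200 uM small-molecule ligand, and an oligonucleotide input. In each, SNAP-549-labelled MS2 coat protein was raised from 0.7 or 1.5 nM, doubling, to 3 µM over designed RNA switches transcribed on Illumina chips by stalled E. coli RNA polymerase. Curve fits of normalised cluster fluorescence gave values whose per-design median over clusters is the apparent KD.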

[1] = Eterna round: R95, input ligand: FMN 200 uM
[2] = Eterna round: R95, input ligand: microRNA oligo, concentration not stated
[3] = Eterna round: R95, input ligand: none
[4] = input ligand: microRNA oligo, concentration not stated

Row | Sequence | apparent KD of MS2 coat protein [1] [nM] | apparent KD of MS2 coat protein [2] [nM] | apparent KD of MS2 coat protein [3] [nM] | apparent KD of MS2 coat protein (input ligand: FMN 200 uM) [nM] | apparent KD of MS2 coat protein [4] [nM] | apparent KD of MS2 coat protein (input ligand: none) [nM]
1 | GUUAAACAUGAGGAUCACCCAUGUCAUCUAAGUCGAGGAUAUGGGAAUUAAUUAAUUAAACCAGAAGGCGAAAAUU [Mat - Same State 1 - D95] (puzzle: Same State 1) | 59.7 | 756 | 1110 |  |  | 
2 | GUUAACUUGAGAGGAUAUGUAGAGGAUCACCCUACAGAAGGCUCUUUGGAGAGGAUAUGUAGAGGAUCACCCUACAGAAGGCUC [pwkr ssNG DX.6] (Eterna round: R96, puzzle: Same State NG 1) |  |  |  | 56.5 | 33.7 | 25.9
3 | GUUACAUGAGGAUCACCCAUGUAUGUGUGGGAGUAAGUGUCUUAGGAUAUCUAGUAUUUAAUUCAAGAGAAGGAAGAUUGUUGU [JMF's solution 68] (Eterna round: R96, puzzle: Same State NG 3) |  |  |  | 118 | 132 | 122
4 | GUUACAUGAGGAUCACCCAUGUAUGUGUGGGAGUAAGUGUCUUAGGAUAUCUAGUAUUUGAUUUAAGAGAAGGAAGAUUGUUGU [JMF's solution 60] (Eterna round: R96, puzzle: Same State NG 3) |  |  |  | 121 | 75.4 | 110
5 | GUUACAUGAGGAUCACCCAUGUAUGUGUGGGAGUAAGUGUCUUAGGAUAUCUAGUUUUUAAUUUAAGAGAAGGAAGAUUGUUGU [JMF's solution 52] (Eterna round: R96, puzzle: Same State NG 3) |  |  |  | 151 | 67.2 | 114
6 | GUUACAUGAGGAUCACCCAUGUAUGUGUGGGAGUAAGUGUCUUAGGAUAUCUAUCAUUAAAUUUAAGAGAAGGAAGAUUGUUGU [JMF's solution 91] (Eterna round: R96, puzzle: Same State NG 3) |  |  |  | 105 | 84.7 | 121
7 | GUUACAUGAGGAUCACCCAUGUAUGUGUGGGAGUAAGUGUCUUAGGAUAUCUAUCAUUUAAUAUAAGAGAAGGAAGAUUGUUGU [JMF's solution 96] (Eterna round: R96, puzzle: Same State NG 3) |  |  |  |  | 87.3 | 
8 | GUUACAUGAGGAUCACCCAUGUAUGUGUGGGAGUAAGUGUCUUAGGAUAUCUAUGAUAUAAUUUAAGAGAAGGAAGAUUGUUGU [JMF's solution 75] (Eterna round: R96, puzzle: Same State NG 3) |  |  |  | 103 | 69.9 | 136
9 | GUUACAUGAGGAUCACCCAUGUAUGUGUGGGAGUAAGUGUCUUAGGAUAUCUAUGAUUGAAUUUAAGAGAAGGAAGAUUGUUGU [JMF's solution 77] (Eterna round: R96, puzzle: Same State NG 3) |  |  |  | 103 | 83.8 | 90.6
10 | GUUACAUGAGGAUCACCCAUGUAUGUGUGGGAGUAAGUGUCUUAGGAUAUCUAUGAUUUAACUUAAGAGAAGGAAGAUUGUUGU [JMF's solution 81] (Eterna round: R96, puzzle: Same State NG 3) |  |  |  | 123 | 72.9 | 98.6
11 | GUUACAUGAGGAUCACCCAUGUAUGUGUGGGAGUAAGUGUCUUAGGAUAUCUAUGAUUUAAGUUAAGAGAAGGAAGAUUGUUGU [JMF's solution 80] (Eterna round: R96, puzzle: Same State NG 3) |  |  |  | 118 | 89.5 | 114
12 | GUUACAUGAGGAUCACCCAUGUAUGUGUGGGAGUAAGUGUCUUAGGAUAUCUAUGUUUUAAUUUAAGAGAAGGAAGAUUGUUGU [JMF's solution 71] (Eterna round: R96, puzzle: Same State NG 3) |  |  |  | 102 | 102 | 115
13 | GUUACAUGAGGAUCACCCAUGUAUGUGUGGGAGUAAGUGUCUUAGGAUAUCUAUUAUUGAAAUUAAGAGAAGGAAGAUUGUUGU [JMF's solution 19] (Eterna round: R96, puzzle: Same State NG 3) |  |  |  |  | 98.6 | 
14 | GUUACAUGAGGAUCACCCAUGUAUGUGUGGGAGUAAGUGUCUUAGGAUAUCUAUUAUUUAAUGUAAGAGAAGGAAGAUUGUUGU [JMF's solution 24] (Eterna round: R96, puzzle: Same State NG 3) |  |  |  |  | 106 | 
15 | GUUACAUGAGGAUCACCCAUGUAUGUGUGGGAGUAAGUGUCUUAGGAUAUCUGUUAUUAAAUUUAAGAGAAGGAAGAUUGUUGU [JMF's solution 36] (Eterna round: R96, puzzle: Same State NG 3) |  |  |  | 104 | 64.1 | 92.7
16 | GUUACAUGAGGAUCACCCAUGUGUGUGUGGGAGUGAGUGGCUUAGGAUAUCUAUGAUUUAAGUUAAGAGAAGGAAGAUUGUUGU [SS-NG3-LRO03] (Eterna round: R96, puzzle: Same State NG 3) |  |  |  | 415 | 196 | 352
17 | GUUAGGAAUCUAGCAUACAUGAGGAUCACCCAUGUUAGUGGGAAGGAUAUGGUACAGAAACUGUACCAGAAGGUCUUAUUGUUU [Omei SS(NG) 3 AV12] (Eterna round: R96, puzzle: Same State NG 3) |  |  |  | 210 | 348 | 408
18 | GUUAGGAAUCUAGCGAACAUGAGGAUCACCCAUGUUAGUGGGAAGGAUAUGGUACAGAAACUGUACCAGAAGGUCUUAUUGUUU [Omei SS(NG) 3 AV11] (Eterna round: R96, puzzle: Same State NG 3) |  |  |  |  | 332 | 
19 | GUUGAAUUGCAAGGAUAUCUUAGUCAGACGCUAAGAGAAGGUGCUUUACAGUUACAUGAGGAUCACCCAUGUCUUUCUUUUGAU [Jens NG1-01] (Eterna round: R96, puzzle: Same State NG 1) |  |  |  | 23.4 | 20.2 | 28.5
20 | GUUGAGAAAUAAGGAUAUACAUGGAAGACACAUGAGGAUCACCCAUGUGGGAGGGAAACCAGGAGGUAGAAGGUAUUGGGAAAC [AK SSNG2-V2-23] (Eterna round: R96, puzzle: Same State NG 2) |  |  |  | 33.1 | 24.1 | 43.7
21 | UAAACUUCUUUUAGUGUAAUGCAAGUGAAACAUGAGGAUCACCCAUGUAAAGGAUCGUGAUAUUUUGUUCGUCUUAA [JR_SHM208A_Sub076] (puzzle: Sensor for hsa-mir-208a) | 57.2 | 32.5 | 83 |  |  | 
22 | UAAAGAUCGCGAGGAUAUCGCGAGGAUCACCCGUGAGAAGGCGCAGAGCCGAGGAUCACCCGGCUGAUCCUGAGGAGGAGGUCA (Eterna round: R96, puzzle: Same State NG 1) |  |  |  | 204 | 213 | 302
23 | UAAAGCAAGUCAGGAUAUGGGAAAGGAAGUGUACUAGAAGGGACUUGUAGGAACAUGAGGAUCACCCAUGUACCGCGGACUAAA [PowerStrip SSNG 1.7] (Eterna round: R96, puzzle: Same State NG 1) |  |  |  | 31.7 | 42.6 | 47.8
24 | UAAAUAAUGAUAGGAUAUACAUGAGGAAUUCUCGUAGAAGGAUCAUGACAUGAGGAUCACCCAUGUAACGCUCGAAAGAGCGUA [Mat - Same State NG 1 - JL mod - D40] (Eterna round: R96, puzzle: Same State NG 1) |  |  |  | 556 | 205 | 585
25 | UAACAGUACAAUUUAGAUCUACAUGAGGAUCACCCAUGUACUGAGGAUAUCAGCUCGUGUAGAGCUGAGAAGGCAGAAGAACUA [SSNG3/11-A4] (Eterna round: R96, puzzle: Same State NG 3) |  |  |  | 38.1 | 93.4 | 173
26 | UAAUUAAGUCAAGGAUAUCACGUCGAAUAGACGUGAGAAGGUGAUUAAUACAUGAGGAUCACCCAUGUAAUACAUGAAUAAUUA [SSNG1/11-B1] (Eterna round: R96, puzzle: Same State NG 1) |  |  |  | 38.3 | 61.6 | 70.8
27 | UACAAUCUAUCUGAGGAUAUCAUGCAUUACACAUGAGGAUCACCCAUGUGCAGGAAAACUGCAUAUGAGAAGGCAGAUAGAUUGU [salish99_ss2_r3_066] (Eterna round: R96, puzzle: Same State 2) |  |  |  | 15.5 | 328 | 411
28 | UACAAUCUAUCUGAGGAUAUCAUGCAUUACACAUGAGGAUCACCCAUGUGCAGGAAAACUGCAUAUGAGAAGGCAGAUAGAUUGU [salish99_ss2_r3_066] (puzzle: Same State 2) | 20.1 | 457 | 472 |  |  | 
